B1: TPR t1 (parent)
chain: GACCAAUCUGCCCUCAGAGCUCGAGAACAUCUUCGGAUGCAGAGGAGGCAGGCUUCGGUGGCGCGAUAGCGCCAACGUCCUCAACCUCCAAUGCAUCCCACCACAUGAUGAUGCCUGAAGAGCCUUGGUUUUUUG

Variants of: B1
Test: polymerase ribozyme fitness, log enrichment relative to wild type (log ratio); higher = more active; in vitro selection for triplet polymerase activity
How it was run: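 Fitness compares each genotype's enrichment to that of the wild type on a logarithmic scale, averaging replicates with inverse-variance weights. The logarithm is base 2. Enrichment came from Illumina sequencing of input and output libraries after one triplicate round of in vitro selection, which included frozen incubation at −7 °C, of PCR-built, transcribed mutant libraries of each subunit of a heterodimeric triplet polymerase ribozyme. Only genotypes with ≥10 input reads and ≥1 read per output were kept.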

Variant | polymerase ribozyme fitness (log ratio)
U32C C98A U106A | -6.32
C34U G65C C70U G117C A121C | -7.03
U55A G69A C94A | -4.1
U14A G122A | -1.5
U9A A18U C64U U92C | -3
C123G | 1.8
G61C G127A U129A | -2.95
C11U U55C G61A A121G | 1.39
G10A A74C U78A A111G | -0.232
G36U C82G U92C | -2.13
C89G C97G | -6.08
C22G G35C | -5.43
G45U U87A | -1.32
A119U | -0.349
G36U U130C | -0.893
G48U C62U | -0.185
C11G G52U C62G U116A | -5.35
G42U U54A G110U U133G | -4.37
C102A U126G | -2.89
A27U C72A C94A | -4.07
C40G G57U G63C A91C | -3.66
A66G C79G U130C | -3.06
U7C A46U C76G | -0.0822
G52C U131A | -0.555

Variant | polymerase ribozyme fitness (log ratio)
C80U C101A | -1.52
A24G U59C U87A | -2.51
C53U A111G | 0.578
C3U C8U A105G | -2.67
C12G C62G C99G C124A | -7.37
A2C U21A | -2.19
A18U C85A | -4.19
G57A G58A U81A U106C | -2.54
G42U C62A | -3.21
A43C C49U C70A C102U G110A G128C U131G | -6.44
U14C C20U G58U C62G | -5.26
C85U U116A G120C | -1.14
U7A A74G C85G | -1.49
G63U C98U | -2.09
C49A G61C G110U U125C | -4.57
G42A A118U | -1.15
A18U U32A C56A A105C G120C G122A C124A | -4.84
C3A U14G G69U C70U U106C | -4.86
C64G G65U C79G C104A C115A C123G | -6.93
A43U G93A A119C G120A | -2.58
G47U C88A | -6.05
C12A G48U C102A A118G | -4.24
U21A U112A | 1.06
G63C G93A G122A | -1.99

Variant | polymerase ribozyme fitness (log ratio)
U9G U92A U96G U109A | -5.59
G36U G42U C99A C114A | -7.29
G10U C13G G45U C72A A91G C102A A118U C124G U132A U133C | -3.66
C12U C20U A46U U54C C56A U87G A91U | -3.03
C34G G48A G52C A84U G120A | -6.12
C8A G45U | -0.263
G19A G51C | -5.83
C70U G113A | -1.39
C8A A43C A46U C86U U96A | -3.85
C4U G52U G61C C124G U131G | -0.648
A91C G127A | -2.15
C11G G93C A105U A119U | -3.55
G39A A43U C70U C82U G113C U132C | -3.27
A5U C8U C11U G61A G113A C124G | -0.703
C56A C114A | -1.74
C53A C56A G69U G127U | -1.27
C70U C104A | -2.32
A6G C11A U92G | -4.04
A2G C72U | 0.0702
G58U U59A A74U C88A | -0.539
G58C G61A U92C | -1.98
C49G G122A | -0.99
A6U A16G G63U C89U | -3.25
G47A A119U | -1.02

Variant | polymerase ribozyme fitness (log ratio)
G10U C11A G36U U78G C115G | -5.09
C13G C72A | -0.649
C34A C114A | -4.47
G63A A118U | 0.468
A68G U131A | -3.5
C28G C40A G71A C94U G110C | -1.03
G51C A91C U112A U131C | -6.14
C53A G61C | -4.19
G47U U59C C97U G110C A121G U126C | -6.2
G42C U106A C115U G120U | -4.34
A46C G69C U81C U112G | -4.07
U54C U133A | -0.0319
G42C C70G | -5.52
G45C C79A | -2.14
G48A G60U A90C C114A | -2.49
C53U G135U | -1.02
C13U C64G U87G G120A C123G | -5.41
A46G G61U | -0.252
U54G C115U | -0.94
C20U A29G C49A G58A A74U U81A U112A | -3.14
C79G G110C | -6.49
G36U A105C G135U | -4.66
G52C C53G A68G G77A U81A C98U | -5.4
G107A A121C | -3.64

Variant | polymerase ribozyme fitness (log ratio)
C34G G47C C104A C124A | -5.21
G10U C22U C98U | -5.53
C11U C13G C114A | -4.11
U7A G48C | -0.566
G10C G69U C79G C80U | -2.66
C8G C56U | 0.485
C53U C115U G117C | -3.76
G61U U126A | -1.86
C11G A111G | 1.17
C15U A84C | -1.68
A37U G44A G122A U130C U131A G135U | -1.23
A66C A75G | -1.09
C20U C70U C88A U106C | -2.34
G63C C101U U130G | -0.981
C3A C12U A29G U87C G110A A118U U131G | -0.49
A37U U81G | -3.43
G65U C70U | -5.58
C15A G36U G61A | -3.38
G52C G122A | -1.3
C12A G45U A100U | -3.05
U7A U92A | -2.1
C22U C76A | -3.53
C49A U78G U96G | -0.964
A6U A105C | -1.94

Variant | polymerase ribozyme fitness (log ratio)
C12U G93U | -0.871
C3U C20G C53A C97U U109A | -3.06
C72G U81C U87C A100U | -2.07
C115G C124U | -1.13
U7G C12A C101G U116C | -2.39
C70G U116A | -4.95
A27G C28G | -4.25
C13U C20U G61A U92C | -1.11
C13A U112A G120C | -0.261
U54G U55G C73U C102G G110U G120C | -6.74
C64U C124A | 1.41
C72G A91C U96C C104A | -4.69
C72A C76G U112G A119G | -0.512
A16U C28U G71U | -3.34
G61C G71A | -4.05
C20A G36A | -4.23
C11U G63U A84U C89U | -2.9
C11G A29U G57A G60A C98U | -4.69
G10U U92G | -3.71
G10U C56G A68G | -4.36
C4U C53U G69A U78A C86U | -3.99
C13G A37G G117C | -4.68
G48C A50G G51U C56G G117A | -5.49
A29G G61A | -0.852

Variant | polymerase ribozyme fitness (log ratio)
A83G A105G C115U | -2.83
A2C C11G G17U G51C U55C C56G | -4.03
G63U U112A A119G | -0.127
C98U U126C | -1.99
A27U G63U | -5.66
C97G A111C | -4.02
C56U G110U U116G G117U | -6.29
C3G C22U G61C U109A | -6.73
U87C U129C | -0.143
U87C U109C U130C | -5.36
C31U C40U G61U G120A | -4.29
C12A G45U | -1.63
A6G A83U | -0.371
C8G C72G | 0.418
U9A U96A C124U | 1.28
A37C G39C G63A | -4.27
G39U C89U A118U | -0.539
A46U G65C | -7.92
G36C C72A C76A U106A G110A | -5.56
C31U C49G | -4.41
U59A C86G C98U | -3.38
A29G C115U | -1.56
G19A G69C G110C | -6.61
